# Results reported in patent publication US20210388118A1 (ZHEJIANG SHIMAI PHARMACEUTICAL, published 2021).
# How the values were obtained:
# recombinant human EGFR [1] = target: T1, recombinant human EGFR (human, UniProt P00533 25-645); test: ELISA, recombinant human EGFR coated, Fab
# T1 construct: Bought protein; construct not described; also called hEGFR
# Procedure: (§1) ELISA was performed according to standard protocols. Briefly, recombinant human or cynomolgus EGFR was coated on Corning EIA/RIA high-binding 96-well plates (Corning Inc.) at 50 ng per well overnight at 4° C. and blocked with 3% nonfat milk in PBS (pH7.4). Fivefold serially diluted antibodies were added and incubated at room temperature for 2 hours. The plates were washed with PBS containing 0.05% Tween 20. Bound Fab and IgG1s were detected by HRP-conjugated anti-FLAG tag antibody and HRP-conjugated anti-human IgG (Fc-specific) antibody, respectively. The assay was developed at room temperature with TMB substrate (Sigma-Aldrich) and monitored at 450 nm with a microplate reader. The half-maximal binding (EC₅₀) was calculated by fitting the data to the Langmuir adsorption isotherm.
# [2] = target: T2, human EGFR on cells (HCT116, A549, A431, HT29) (human, UniProt P00533 25-1210); test: flow cytometry on A549 cells, Fab at 100 nM
# T2 construct: whole, on cells; also called cell surface EGFR; cell-surface EGFR
# Procedure: To measure the binding of SMET5 Fab to cell surface EGFR, about 5×10⁵ cells were incubated with 100 nM antibody on ice for 1 h. The cells were washed once with PBS containing 0.1% bovine serum albumin (PBSA) and resuspended in 200 μl PBSA. Then 5 μl anti-His-PE conjugate was added and incubated for 30 min. The cells were washed once with PBSA and then used for flow cytometry analysis.
# recombinant human EGFR [3] = target: T1, recombinant human EGFR; test: ELISA, recombinant EGFR coated
# Procedure: as §1
# [4] = target: T2, human EGFR on cells (HCT116, A549, …); test: flow cytometry on A549 cells, 2 µg/mL
# Procedure: To measure the binding of IgG1 s of SMET5 variants to cell surface EGFR, about 5×10⁵ cells were incubated with 2 μg mL⁻¹ antibodies on ice for 1 h. The cells were washed once with PBSA and resuspended in 200 μl PBSA. Then 5 μ1 goat F(ab′)2 anti-human IgG (γ)-FITC conjugate was added and incubated for 30 min. The cells were washed once with PBSA and then used for flow cytometry analysis.
# recombinant human EGFR [5] = target: T1, recombinant human EGFR; test: ELISA, recombinant human EGFR coated
# Procedure: as §1
# [6] = target: T3, recombinant cynomolgus EGFR (cynomolgus, UniProt A0A2K5WK39 25-645); test: ELISA, recombinant cynomolgus EGFR coated
# T3 construct: Bought protein; construct not described
# Procedure: as §1
Binder,binding result (recombinant human EGFR [1]),binding result (recombinant human EGFR [3]),binding result [4],also measured
"SMET5 Fab (Fab, V domains shown, Human Fab from a phage library, expressed in E. coli, His-tagged and detected by anti-FLAG; also called SMETS) VH: EVQLVETGGGVVQPGRSLRLSCAASGFTFSSYAMHWVRQAPGKGLEWVAVISYDGSNKYYADSVKGRFTISRDNSKNTLYLQMNSLRAEDTAVYYCARGYVARGDFDYWGQGTLVTVSS VL: DIQMTQSPSTLSASVGDRVTITCRASQTVDSWLAWYQQKPGKAPKLLIYATSSLQSGVPSRFSGSGSGTDFTLTISSLQPEDFATYYCQQGHIAPHTFGQGTTLEIK",binds,,,binding result [2]: binds
"SMET5 IgG1 (antibody, V domains shown, Human IgG1 from 293FS cells; also called SMETS IgG1) VH: EVQLVETGGGVVQPGRSLRLSCAASGFTFSSYAMHWVRQAPGKGLEWVAVISYDGSNKYYADSVKGRFTISRDNSKNTLYLQMNSLRAEDTAVYYCARGYVARGDFDYWGQGTLVTVSS VL: DIQMTQSPSTLSASVGDRVTITCRASQTVDSWLAWYQQKPGKAPKLLIYATSSLQSGVPSRFSGSGSGTDFTLTISSLQPEDFATYYCQQGHIAPHTFGQGTTLEIKR",,binds,binds,
"SMET5.4 Fab (Fab, V domains shown, His-tagged Fab) VH: EVQLVETGGGVVQPGRSLRLSCAASGFTFSSYAMHWVRQAPGKGLEWVAVISYDGSNKYYADSVKGRFTISRDNSKNTLYLQMNSLRAEDTAVYYCARGYVARGDFDYWGQGTLVTVSS VL: DIQLTQSPSSVSASVGDRVTITCRASQGISSWLAWYQQKPGKAPKLLIYAASALQSGVPSRFSGSGSGTEFTLTIYDLQPDDFATYFCQQYDTFLWTFGQGTKVEIK",binds,,,
"SMET5.3 Fab (Fab, V domains shown, His-tagged Fab) VH: EVQLVETGGGVVQPGRSLRLSCAASGFTFSSYAMHWVRQAPGKGLEWVAVISYDGSNKYYADSVKGRFTISRDNSKNTLYLQMNSLRAEDTAVYYCARGYVARGDFDYWGQGTLVTVSS VL: DIQLTQSPSTLSASVGDRVTITCRSNQTADSWLAWYQQKPGKAPNLLIYAASNLQSGVPSRFSGSGSGTDFTLTISSLQPEDFATYYCQQSYSTPFMFTFGQGTKLEIK",binds,,,
"SMET5.3 IgG1 (antibody, V domains shown, Human IgG1 from 293FS cells) VH: EVQLVETGGGVVQPGRSLRLSCAASGFTFSSYAMHWVRQAPGKGLEWVAVISYDGSNKYYADSVKGRFTISRDNSKNTLYLQMNSLRAEDTAVYYCARGYVARGDFDYWGQGTLVTVSS VL: DIQLTQSPSTLSASVGDRVTITCRSNQTADSWLAWYQQKPGKAPNLLIYAASNLQSGVPSRFSGSGSGTDFTLTISSLQPEDFATYYCQQSYSTPFMFTFGQGTKLEIKR",,binds,binds,
"SMET5.2 IgG1 (antibody, V domains shown, Human IgG1 from 293FS cells) VH: EVQLVETGGGVVQPGRSLRLSCAASGFTFSSYAMHWVRQAPGKGLEWVAVISYDGSNKYYADSVKGRFTISRDNSKNTLYLQMNSLRAEDTAVYYCARGYVARGDFDYWGQGTLVTVSS VL: DVVMTQSPSTLSASVGDRVTITCRASQSMSRWLAWYQQKPGKGPKLLIYATSTLQSGVPSRFSGSGSGTEFTLTISSLQPEDFATYYCQQLDSFPFSFTFGPGTKVDLKR",,,,EC50 (recombinant human EGFR [5]): 1.4 nM; EC50 [6]: 0.76 nM
